± gives the uncertainty stated by the source.
Assay: self-splicing fitness, log relative to wild type (ln ratio); higher = more splicing; Tetrahymena group I intron in knt gene, E. coli kanamycin selection, DiMSum; sequences stand for … in CUCUCU…GGAGGGAAAAGUUAUCAGGCAUGCACCUGGUAGCUAGUCUUUAAACCAAUAGAUUGCAUCGGUUUAAAAGGCAAGACCGUCAAAUUGCGGGAAAGGGGUCAACAGCCGUUCAGUACCAAGUCUCAGGGGAAACUUUGAGAUGGCCUUGCAAAGGGUAUGGUAAUAAGCUGACGGACAUGGUCCUAACCACGCAGCCAAGUCCUAAGUCAACAGAUCUUCUGUUGAUAUGGAUGCAGUUCACAGACUAAAUGUCGGUCGGGGAAGAUGUAUUCUUCUCAUAAGAUAUAGUCGGACCUCUCCUUAAUGGGAGCUAGCGGAUGAAGUGAUGCAACACUGGAGCCGCUGGGAACUAAUUUGUAUGCGAAAGUAUAUUGAUUAGUUUUGGAGUACUCGUGGUCG
How it was run: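 Colonies from six replicate transformations of E. coli BL21(DE3) were pooled and amplicon-sequenced on an Illumina HiSeq 2500. The library placed an intron with all eight P1ex-region nucleotides randomised inside the knt kanamycin-resistance gene on pET-22b(+), and cells grew overnight at 37°C or 30°C on LB agar with or without 25 μg/mL kanamycin (plus 100 μg/mL carbenicillin, 50 μM IPTG, 0.2% rhamnose). Fitness is the DiMSum error-weighted combination of wild-type-normalised replicate fold changes, kanamycin versus none.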

| Sequence | self-splicing fitness (ln) (30 °C) | self-splicing fitness (ln) (37 °C) |
| --- | --- | --- |
| AACGAGCAAUAUUACGCGCU | -3.43 ± 0.2 | -0.902 ± 0.14 |
| AGCUAGCAAUAUUACGACCG | -1.53 ± 0.1 | -1.06 ± 0.13 |
| CACCAGCAAUAUUACGGCGC | -2.3 ± 0.11 | -1.5 ± 0.13 |
| UUCAAGCAAUAUUACGAUAA | -0.317 ± 0.048 | 0.226 ± 0.059 |
| GGAUAGCAAUAUUACGAUCA | 0.409 ± 0.12 | 0.227 ± 0.12 |
| UGGUAGCAAUAUUACGUAUU | -3.07 ± 0.14 | -1.84 ± 0.17 |
| CCUUAGCAAUAUUACGGAAU | -3.53 ± 0.2 | -3.15 ± 0.3 |
| UCCGAGCAAUAUUACGGUGG | -2.76 ± 0.14 | -2.31 ± 0.2 |
| UAGGAGCAAUAUUACGCGUC | -2.98 ± 0.28 | -2.22 ± 0.29 |
| UAAUAGCAAUAUUACGAGGG | -3.81 ± 0.39 | -1.73 ± 0.23 |
| UAAGAGCAAUAUUACGGUUA | -1.12 ± 0.12 | -0.602 ± 0.1 |
| CGUCAGCAAUAUUACGUCCC | -3.43 ± 0.31 | -0.834 ± 0.22 |
| ACGGAGCAAUAUUACGAUAC | -2.35 ± 0.18 | -1.98 ± 0.22 |
| UUUGAGCAAUAUUACGCUCA | -3.33 ± 0.41 | -1.6 ± 0.41 |
| ACGAAGCAAUAUUACGUCUA | -1.66 ± 0.071 | -1.03 ± 0.061 |
| AAGCAGCAAUAUUACGCCCA | -0.461 ± 0.15 | 0.244 ± 0.23 |
| GCUCAGCAAUAUUACGAAGA | -0.583 ± 0.12 | -0.863 ± 0.14 |
| UACCAGCAAUAUUACGCGCG | 0.11 ± 0.068 | 0.573 ± 0.09 |
| AAUGAGCAAUAUUACGAAGC | -3.08 ± 0.35 | -1.89 ± 0.43 |
| UCCCAGCAAUAUUACGAAAU | -3.28 ± 0.16 | -1.76 ± 0.2 |

| Sequence | self-splicing fitness (ln) (30 °C) | self-splicing fitness (ln) (37 °C) |
| --- | --- | --- |
| CGGUAGCAAUAUUACGAGGU | -3.59 ± 0.25 | -2.03 ± 0.25 |
| GACUAGCAAUAUUACGAGCC | -1.28 ± 0.17 | -0.877 ± 0.26 |
| ACAAAGCAAUAUUACGUGGG | -3.35 ± 0.13 | -2.47 ± 0.14 |
| UGUCAGCAAUAUUACGGACA | -3.1 ± 0.29 | -1.75 ± 0.21 |
| AAGAAGCAAUAUUACGAGUA | -0.78 ± 0.26 | -1.44 ± 0.21 |
| UACUAGCAAUAUUACGAUAG | -1.44 ± 0.12 | -0.923 ± 0.14 |
| AAGCAGCAAUAUUACGGACC | -1.42 ± 0.14 | -0.369 ± 0.17 |
| AGUUAGCAAUAUUACGCGCG | -0.159 ± 0.12 | -0.151 ± 0.15 |
| ACUAAGCAAUAUUACGGUCC | -2.35 ± 0.2 | -1.04 ± 0.23 |
| UACCAGCAAUAUUACGUGGG | -3.76 ± 0.11 | -2.52 ± 0.1 |
| AUGUAGCAAUAUUACGCGCG | -0.882 ± 0.093 | -0.464 ± 0.099 |
| AUUGAGCAAUAUUACGAGAU | -3.73 ± 0.35 | -1.11 ± 0.26 |
| AUACAGCAAUAUUACGGAAA | -3.24 ± 0.2 | -2.16 ± 0.17 |
| UAGCAGCAAUAUUACGUCCA | -0.794 ± 0.11 | -0.187 ± 0.11 |
| CGACAGCAAUAUUACGGGGA | -3.22 ± 0.15 | -2.35 ± 0.11 |
| AGUUAGCAAUAUUACGACUU | -1.32 ± 0.078 | -0.587 ± 0.12 |
| CUUGAGCAAUAUUACGAAUU | -3.53 ± 0.33 | -3.19 ± 0.47 |
| UUCAAGCAAUAUUACGAAUU | -3.21 ± 0.24 | -1.69 ± 0.27 |
| GUGUAGCAAUAUUACGCGUC | -3.17 ± 0.21 | -0.598 ± 0.14 |
| UGUGAGCAAUAUUACGCACC | -1.27 ± 0.21 | -1.14 ± 0.22 |

| Sequence | self-splicing fitness (ln) (30 °C) | self-splicing fitness (ln) (37 °C) |
| --- | --- | --- |
| ACUUAGCAAUAUUACGAGUC | – | -3.01 ± 0.35 |
| CUUUAGCAAUAUUACGUUGG | -3.1 ± 0.24 | -1.86 ± 0.27 |
| UGUCAGCAAUAUUACGAAUU | -0.864 ± 0.13 | -1.04 ± 0.13 |
| UCAUAGCAAUAUUACGCAGG | -3.24 ± 0.17 | -3.01 ± 0.17 |
| AACGAGCAAUAUUACGACUG | -2.12 ± 0.16 | -0.348 ± 0.15 |
| ACUUAGCAAUAUUACGACGG | -0.755 ± 0.081 | -0.0301 ± 0.11 |
| CCAUAGCAAUAUUACGCAUA | -3.76 ± 0.26 | -2.72 ± 0.29 |
| GCUAAGCAAUAUUACGGUGC | -3.38 ± 0.22 | -2.6 ± 0.39 |
| AUCUAGCAAUAUUACGUUCU | -1.52 ± 0.09 | -0.607 ± 0.11 |
| UACAAGCAAUAUUACGACAC | -3.15 ± 0.18 | -1.38 ± 0.15 |
| UCCUAGCAAUAUUACGUGUA | -2.28 ± 0.18 | -1.09 ± 0.12 |
| AUUGAGCAAUAUUACGUCAU | -2.76 ± 0.14 | -2.12 ± 0.17 |
| CCGGAGCAAUAUUACGUCGU | -3.43 ± 0.22 | -1.51 ± 0.18 |
| CGUUAGCAAUAUUACGGUUG | -0.758 ± 0.11 | 0.388 ± 0.13 |
| UAUUAGCAAUAUUACGAUAC | – | -1.13 ± 0.24 |
| UGAUAGCAAUAUUACGCCAG | -1.59 ± 0.23 | -0.994 ± 0.49 |
| AACUAGCAAUAUUACGUUCU | -1.55 ± 0.061 | -1.14 ± 0.079 |
| CCUGAGCAAUAUUACGAUGA | -2.57 ± 0.2 | -1.44 ± 0.18 |
| CUCUAGCAAUAUUACGCAGC | -3.2 ± 0.25 | – |
| GUCCAGCAAUAUUACGAUUU | -0.323 ± 0.064 | 0.653 ± 0.067 |
